Reference: patent publication US20120172293A1 (Takeda / Millennium, published 2012)
Non-standard residues stand in square brackets, D forms with d. tBuAla = CC(C)(C)C[C@H](N)C(=O)O; 4Pal = N[C@@H](Cc1ccncc1)C(=O)O; dHyp = O=C(O)[C@H]1C[C@H](O)CN1; Cha = N[C@@H](CC1CCCCC1)C(=O)O; Iva = CC[C@](C)(N)C(=O)O; Aib = CC(C)(N)C(=O)O

B1: Ac-[D-Hyp24, Cha27,36, Leu(Me)28, Lys30, Aib31]-PYY(23-36) (peptide)
peptide: Ac-S[dHyp]RH[Cha][tBuAla]NK[Aib]TRQR[Cha]-NH2
SMILES: CC(=O)N[C@@H](CO)C(=O)N1C[C@@H](O)C[C@@H]1C(=O)N[C@@H](CCCNC(=N)N)C(=O)N[C@@H](Cc1c[nH]cn1)C(=O)N[C@@H](CC1CCCCC1)C(=O)N[C@@H](CC(C)(C)C)C(=O)N[C@@H](CC(N)=O)C(=O)N[C@@H](CCCCN)C(=O)NC(C)(C)C(=O)N[C@H](C(=O)N[C@@H](CCCNC(=N)N)C(=O)N[C@@H](CCC(N)=O)C(=O)N[C@@H](CCCNC(=N)N)C(=O)N[C@@H](CC1CCCCC1)C(N)=O)[C@@H](C)O
B2: Ac-[Glu23, D-Hyp24, Pya(4)26, Cha27,36, Aib28,31, Lys30]-PYY(23-36) (peptide)
peptide: Ac-E[dHyp]R[4Pal][Cha][Aib]NK[Aib]TRQR[Cha]-NH2
SMILES: CC(=O)N[C@@H](CCC(=O)O)C(=O)N1C[C@@H](O)C[C@@H]1C(=O)N[C@@H](CCCNC(=N)N)C(=O)N[C@@H](Cc1ccncc1)C(=O)N[C@@H](CC1CCCCC1)C(=O)NC(C)(C)C(=O)N[C@@H](CC(N)=O)C(=O)N[C@@H](CCCCN)C(=O)NC(C)(C)C(=O)N[C@H](C(=O)N[C@@H](CCCNC(=N)N)C(=O)N[C@@H](CCC(N)=O)C(=O)N[C@@H](CCCNC(=N)N)C(=O)N[C@@H](CC1CCCCC1)C(N)=O)[C@@H](C)O
B3: Ac-[D-Pro24, Pya(4)26, Cha27,36, Aib28,31, Trp30]-PYY(23-36) (peptide)
peptide: Ac-S[dP]R[4Pal][Cha][Aib]NW[Aib]TRQR[Cha]-NH2
SMILES: CC(=O)N[C@@H](CO)C(=O)N1CCC[C@@H]1C(=O)N[C@@H](CCCNC(=N)N)C(=O)N[C@@H](Cc1ccncc1)C(=O)N[C@@H](CC1CCCCC1)C(=O)NC(C)(C)C(=O)N[C@@H](CC(N)=O)C(=O)N[C@@H](Cc1c[nH]c2ccccc12)C(=O)NC(C)(C)C(=O)N[C@H](C(=O)N[C@@H](CCCNC(=N)N)C(=O)N[C@@H](CCC(N)=O)C(=O)N[C@@H](CCCNC(=N)N)C(=O)N[C@@H](CC1CCCCC1)C(N)=O)[C@@H](C)O
B4: Ac-[Glu23, D-Hyp24, Cha27,28,36, Lys30, Aib31]-PYY(23-36) (peptide)
peptide: Ac-E[dHyp]RH[Cha][Cha]NK[Aib]TRQR[Cha]-NH2
SMILES: CC(=O)N[C@@H](CCC(=O)O)C(=O)N1C[C@@H](O)C[C@@H]1C(=O)N[C@@H](CCCNC(=N)N)C(=O)N[C@@H](Cc1c[nH]cn1)C(=O)N[C@@H](CC1CCCCC1)C(=O)N[C@@H](CC1CCCCC1)C(=O)N[C@@H](CC(N)=O)C(=O)N[C@@H](CCCCN)C(=O)NC(C)(C)C(=O)N[C@H](C(=O)N[C@@H](CCCNC(=N)N)C(=O)N[C@@H](CCC(N)=O)C(=O)N[C@@H](CCCNC(=N)N)C(=O)N[C@@H](CC1CCCCC1)C(N)=O)[C@@H](C)O
B5: Ac-[Glu23, D-Pro24, Pya(4)26, Cha27,36, Aib28,31, Lys30]-PYY(23-36) (peptide)
peptide: Ac-E[dP]R[4Pal][Cha][Aib]NK[Aib]TRQR[Cha]-NH2
SMILES: CC(=O)N[C@@H](CCC(=O)O)C(=O)N1CCC[C@@H]1C(=O)N[C@@H](CCCNC(=N)N)C(=O)N[C@@H](Cc1ccncc1)C(=O)N[C@@H](CC1CCCCC1)C(=O)NC(C)(C)C(=O)N[C@@H](CC(N)=O)C(=O)N[C@@H](CCCCN)C(=O)NC(C)(C)C(=O)N[C@H](C(=O)N[C@@H](CCCNC(=N)N)C(=O)N[C@@H](CCC(N)=O)C(=O)N[C@@H](CCCNC(=N)N)C(=O)N[C@@H](CC1CCCCC1)C(N)=O)[C@@H](C)O
B6: Ac-[D-Pro24, Cha27,28,36, Iva30, Aib31]-PYY(23-36) (peptide)
peptide: Ac-S[dP]RH[Cha][Cha]N[Iva][Aib]TRQR[Cha]-NH2
SMILES: CC[C@](C)(NC(=O)[C@H](CC(N)=O)NC(=O)[C@H](CC1CCCCC1)NC(=O)[C@H](CC1CCCCC1)NC(=O)[C@H](Cc1c[nH]cn1)NC(=O)[C@H](CCCNC(=N)N)NC(=O)[C@H]1CCCN1C(=O)[C@H](CO)NC(C)=O)C(=O)NC(C)(C)C(=O)N[C@H](C(=O)N[C@@H](CCCNC(=N)N)C(=O)N[C@@H](CCC(N)=O)C(=O)N[C@@H](CCCNC(=N)N)C(=O)N[C@@H](CC1CCCCC1)C(N)=O)[C@@H](C)O

Experiments:
[1] = biological target: human Y2 receptor (human) (UniProt P49146); test: RBA: displacement of [125I]-PYY from hY2R/CHO membranes
Sequence of human Y2 receptor (human) (P49146 whole entry): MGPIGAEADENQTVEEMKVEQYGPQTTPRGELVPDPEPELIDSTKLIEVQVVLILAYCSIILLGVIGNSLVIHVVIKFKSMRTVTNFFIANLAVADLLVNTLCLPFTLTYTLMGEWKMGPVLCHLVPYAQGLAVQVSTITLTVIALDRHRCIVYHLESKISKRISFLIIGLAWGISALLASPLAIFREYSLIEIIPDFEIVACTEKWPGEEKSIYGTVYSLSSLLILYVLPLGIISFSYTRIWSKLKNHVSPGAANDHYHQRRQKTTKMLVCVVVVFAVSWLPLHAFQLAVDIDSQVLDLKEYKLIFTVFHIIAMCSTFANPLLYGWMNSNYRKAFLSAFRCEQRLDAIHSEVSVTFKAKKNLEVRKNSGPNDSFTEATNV

[2] = biological target: human Y2 receptor (human) (UniProt P49146); test: cell-based or functional assay

Molecule | IC50 Ratio (IC50 compound/IC50 PYY(3-36)) [1] | GBA EC50 Ratio ([35S]GTPγS binding) (EC50 compound/EC50 PYY(3-36)) [2]
Ac-[D-Pro24, Pya(4)26, Cha27,36, Aib28,31, Har30]-PYY(23-36) (peptide) | 0.36 | 0.79
(Carboxymethyl)carbamoyl-[D-Pro24, Pya(4)26, Cha27,36, Aib28,31, Lys30]-PYY(23-36) (peptide) | 1.2 | 1.2
Ac-[D-Hyp24, Iva25, Pya(4)26, Cha27,36, Aib28,31, Lys30]-PYY(23-36) (peptide) | 1.5 | 1.4
Ac-[D-Pro24, Ala(4Pip)26, Cha27,36, Aib28,31, Lys30]-PYY(23-36) (peptide) | 1.2 | 1.5
Ac-[D-Pro24, Tyr(Me)26, Cha27,36, Aib28,31, Lys30]-PYY(23-36) (peptide) | 0.88 | 1.4
[(1S)-1-Carboxy-3-methylbutyl]carbamoyl-[D-Pro24, Pya(4)26, Cha27,36, Aib28,31, Lys30]-PYY(23-36) (peptide) | 0.82 | 0.82
Ac-[D-Pro24, Pya(4)26, Cha27,36, Aib28,31, Hse30]-PYY(23-36) (peptide) | 5.8 | 5.7
(2-Carboxyethyl)carbamoyl-[D-Pro24, Pya(4)26, Cha27,36, Aib28,31, Lys30]-PYY(23-36) (peptide) | 1.3 | 0.94
Ac-[D-Pro24, Arg(Me)25, Pya(4)26, Cha27,36, Aib28,31, Lys30]-PYY(23-36) (peptide) | 1.1 | 1.3
2-Methylbutanoyl-[D-Pro24, Pya(4)26, Cha27,36, Aib28,31, Lys30]-PYY(23-36) (peptide) | 0.54 | 0.78
Ac-[D-Pro24, Pya(4)26, Cha27,36, Iva28,31, Lys30]-PYY(23-36) (peptide) | 0.31 | 1
(2-amino-2-oxoethyl)carbamoyl-[D-Pro24, Pya(4)26, Cha27,36, Aib28,31, Lys30]-PYY(23-36) (peptide) | 1.2 | 0.74
Ac-[D-Pro24, Cit25, Pya(4)26, Cha27,36, Aib28,31, Lys30]-PYY(23-36) (peptide) | 2.8 | 2.2
Ac-[D-Pro24, Pya(4)26, Cha27,36, Aib28,31, Lys(Ac)30]-PYY(23-36) (peptide) | 0.97 | 1.1
Ac-[D-Hyp24, Iva25,28, Pya(4)26, Cha27,36, Lys30, Aib31]-PYY(23-36) (peptide) | 0.86 | 1
Ac-[D-Pro24, Pya(4)26, Cha27, Aib28,31, Lys30, Phe(2Me)36]-PYY(23-36) (peptide) | 1 | 0.98
Ac-[D-Hyp24, Iva25, Pya(4)26, Cha27,36, Leu(Me)28, Lys30, Aib31]-PYY(23-36) (peptide) | 0.97 | 1.5
4-Imidazolecarbonyl-[D-Hyp24, Iva25, Pya(4)26, Cha27,36, αMePhe28, Lys30, Aib31]-PYY(23-36) (peptide) | 0.65 | 1
4-Imidazolecarbonyl-[Aib24,28,31, Iva25, Pya(4)26, Cha27,36, Lys30]-PYY(23-36) (peptide) | 1.9 | 1.7
Ac-[D-Pro24, Abu26, Cha27,36, Aib28,31, Lys30]-PYY(23-36) (peptide) | 2.3 | 0.98
Ac-[D-Pro24, Pya(4)26, Ala(4Pip)27, Aib28,31, Lys30, Cha36]-PYY(23-36) later peak (peptide) | 3.8 | 3.9
Ac-[D-Pro24, Pya(4)26, Cha27, Aib28,31, Lys30, Phe(2,6-Me2)36]-PYY(23-36) (peptide) | 0.52 | 0.59
B1 | 0.38 | 0.76
B2 | 3.4 | 2.2
B3 | 2.5 | 2.4
B4 | 0.8 | 1.3
B5 | 2.7 | 1.9
B6 | 43 | 20
